Article PMC8549804 (Chemical Science, 2021)

B1: gp32-ΔCTD (amino acids 1-254) (domain or fragment, bacteriophage T4, UniProt P03695 1-254, looked up)
chain: MFKRKSTAELAAQMAKLNGNKGFSSEDKGEWKLKLDNAGNGQAVIRFLPSKNDEQAPFAILVNHGFKKNGKWYIETCSSTHGDYDSCPVCQYISKNDLYNTDNKEYSLVKRKTSYWANILVVKDPAAPENEGKVFKYRFGKKIWDKINAMIAVDVEMGETPVDVTCPWEGANFVLKVKQVSGFSNYDESKFLNQSAIPNIDDESFQKELFEQMVDLSEMTSKDKFKSFEELNTKFGQVMGTAVMGGAAATAAKK
B2: bacteriophage T4 gene product 32 (gp32) (natural protein)
chain: MFKRKSTAELAAQMAKLNGNKGFSSEDKGEWKLKLDNAGNGQAVIRFLPSKNDEQAPFAILVNHGFKKNGKWYIETCSSTHGDYDSCPVCQYISKNDLYNTDNKEYSLVKRKTSYWANILVVKDPAAPENEGKVFKYRFGKKIWDKINAMIAVDVEMGETPVDVTCPWEGANFVLKVKQVSGFSNYDESKFLNQSAIPNIDDESFQKELFEQMVDLSEMTSKDKFKSFEELNTKFGQVMGTAVMGGAAATAAKKADKVADDLDAFNVDDFNTKTEDDFMSSSSGSSSSADDTDLDDLLNDLC
modifications: disulfur monoxide moiety at Cys302 (C-terminal, attributed to the intein reaction)

Biological target: the molecule itself
Test: native MS

| Protein | stoichiometry N |
| --- | --- |
| B1 | 2 |
| B2 | 2 |
